B1: SLC6A17 (parent)
chain: HMFTPKLDKMLDPQVWREAATQVF
B2: KRT15 (parent)
chain: SNFHINVEESVDGQVVSSHKREI

Variants of: B1
Test: protein stability index of a GFP-peptide fusion (GPS, HEK-293T) (PSI 1-6); higher = more stable
Conditions: c terminus: a fixed tail appended
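Further: lentivirally expressed fusions sorted by FACS into six bins by GFP to DsRed ratio, PSI derived from sequencing read proportions per bin multiplied by bin number.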

Variant	protein stability index
HMFTPKLDIMLDPQVWREAATQVF [K9I]	1.66
HMFTPKLDTMLDPQVWREAATQVF [K9T]	2.1
HMFTPKLDRMLDPQVWREAATQVF [K9R]	2.42
HMFTPKLDHMLDPQVWREAATQVF [K9H]	2.94
HMFTPKLDEMLDPQVWREAATQVF [K9E]	1.58
HMFTPKLDNMLDPQVWREAATQVF [K9N]	2.04
HMFTPKLDKMPDPQVWREAATQVF [L11P]	2.16
HMFTPKLDKMSDPQVWREAATQVF [L11S]	2.18
HMFTPKLDKMTDPQVWREAATQVF [L11T]	2.18
HMFTPKLDKMMDPQVWREAATQVF [L11M]	2.05
HMFTPKLDKMRDPQVWREAATQVF [L11R]	3.13
HMFTPKLDKMIDPQVWREAATQVF [L11I]	2.39
HMFTPKLDKMCDPQVWREAATQVF [L11C]	2.17
HMFTPKLDKMGDPQVWREAATQVF [L11G]	2.9
HMFTPKLDKMWDPQVWREAATQVF [L11W]	1.63
HMFTPKLDKMNDPQVWREAATQVF [L11N]	2.29
HMFTPKLDKMYDPQVWREAATQVF [L11Y]	2.43
HMFTPKLDKMLDPQVWREAFTQVF [A20F]	1.43
HMFTPKLDKMLDPQVWREASTQVF [A20S]	2.03
HMFTPKLDKMLDPQVWREAQTQVF [A20Q]	1.7
HMFTPKLDKMLDPQVWREAVTQVF [A20V]	1.22
HMFTPKLDKMLDPNVWREAATQVF [Q14N]	2.23
HMFTPKLDKMLDPQVWREAATQIF [V23I]	1.89
HMFTPKLDKMLDPQVWREAATQCF [V23C]	2.99
HMFTPKLDKMLDPQVWREAATQHF [V23H]	2.02

Variant	protein stability index
HMFTPKLDKTLDPQVWREAATQVF [M10T]	1.66
HMFTPKLDKGLDPQVWREAATQVF [M10G]	2.15
HMFTPKLDKCLDPQVWREAATQVF [M10C]	2.31
HMFTPKLDKMLDPQVWREAACQVF [T21C]	1.06
HMFTPKLDKMLDPQVWREAAYQVF [T21Y]	1.54
HMFTPKLDKMLDPQVWREAANQVF [T21N]	2.21
HMFTPKLDKMLDPQVWREPATQVF [A19P]	2.24
HMFTPKLDKMLDPQVWRENATQVF [A19N]	2.35
HMFTPKLDKMLDPQVWRELATQVF [A19L]	1.48
HMFTPKLDKMLDPQVWREFATQVF [A19F]	2.03
HMFTPKLDKMLDPQVWREEATQVF [A19E]	1.96
HMFTPKLDKMLDPQVWREAATCVF [Q22C]	1.81
HMFTPKLDKMLDPQVWREAATYVF [Q22Y]	1.85
HMFTPKLDKMLDPQVWREAATMVF [Q22M]	3.21
HMFTPKLDKMLDPQVWREAATPVF [Q22P]	1.67
HMFTPKLDKMLDPQVPREAATQVF [W16P]	3.78
HMFTPKLDKMLDPQVSREAATQVF [W16S]	2.87
HMFTPKLDKMLDPQVVREAATQVF [W16V]	2.59
HMFTPKLDKMLDPQVHREAATQVF [W16H]	3.88
HMFTPKLDKMLDPQVDREAATQVF [W16D]	3.83
HMFTPKLDKMLDPQVFREAATQVF [W16F]	2.47
HMFTPKVDKMLDPQVWREAATQVF [L7V]	1.79
HMFTPKGDKMLDPQVWREAATQVF [L7G]	2.24
HMFTPKIDKMLDPQVWREAATQVF [L7I]	1.4
HMFTPKHDKMLDPQVWREAATQVF [L7H]	1.79

Variant	protein stability index
HMFTPKLDKMLDPQVWCEAATQVF [R17C]	1.39
HMFTPKLDKMLDPQVWIEAATQVF [R17I]	2.08
HMFTPKLDKMLDPQVWYEAATQVF [R17Y]	1.18
HPFTPKLDKMLDPQVWREAATQVF [M2P]	2.36
HTFTPKLDKMLDPQVWREAATQVF [M2T]	2.14
HGFTPKLDKMLDPQVWREAATQVF [M2G]	1.92
HCFTPKLDKMLDPQVWREAATQVF [M2C]	2.01
HNFTPKLDKMLDPQVWREAATQVF [M2N]	2.43
HWFTPKLDKMLDPQVWREAATQVF [M2W]	1.81
HRFTPKLDKMLDPQVWREAATQVF [M2R]	2.56
HMFTPALDKMLDPQVWREAATQVF [K6A]	1.99
HMFTPWLDKMLDPQVWREAATQVF [K6W]	2.1
HMFTPPLDKMLDPQVWREAATQVF [K6P]	2.01
HMFTPVLDKMLDPQVWREAATQVF [K6V]	1.24
HMFTPNLDKMLDPQVWREAATQVF [K6N]	2.11
HMFTPKLWKMLDPQVWREAATQVF [D8W]	1.86
HMFTPKLTKMLDPQVWREAATQVF [D8T]	2.27
HMFTPKLMKMLDPQVWREAATQVF [D8M]	1.81
HMFTPKLPKMLDPQVWREAATQVF [D8P]	3.01
HMFTPKLIKMLDPQVWREAATQVF [D8I]	1.65
HMFWPKLDKMLDPQVWREAATQVF [T4W]	2.21
HMFCPKLDKMLDPQVWREAATQVF [T4C]	2.49
HMHTPKLDKMLDPQVWREAATQVF [F3H]	2.17
HMNTPKLDKMLDPQVWREAATQVF [F3N]	2.86
HMQTPKLDKMLDPQVWREAATQVF [F3Q]	2.17

Variant	protein stability index
HMITPKLDKMLDPQVWREAATQVF [F3I]	2.45
DMFTPKLDKMLDPQVWREAATQVF [H1D]	2.3
GMFTPKLDKMLDPQVWREAATQVF [H1G]	1.79
NMFTPKLDKMLDPQVWREAATQVF [H1N]	1.56
SMFTPKLDKMLDPQVWREAATQVF [H1S]	2.06
MMFTPKLDKMLDPQVWREAATQVF [H1M]	2.74
CMFTPKLDKMLDPQVWREAATQVF [H1C]	1.56
HMFTPKLDKMLDPQVWRYAATQVF [E18Y]	1.75
HMFTPKLDKMLDPQVWRSAATQVF [E18S]	1.99
HMFTPKLDKMLDPQVWRCAATQVF [E18C]	1.29
HMFTPKLDKMLDPQVWRKAATQVF [E18K]	1.08
HMFTPKLDKMLDPQVWRDAATQVF [E18D]	1.87
HMFTGKLDKMLDPQVWREAATQVF [P5G]	1.61
HMFTPKLDKMLDPQVWREAATQVC [F24C]	1.97
HMFTPKLDKMLDPQVWREAATQVM [F24M]	2.96
HMFTPKLDKMLPPQVWREAATQVF [D12P]	1.91
HMFTPKLDKMLQPQVWREAATQVF [D12Q]	2.2
HMFTPKLDKMLFPQVWREAATQVF [D12F]	1.63
HMFTPKLDKMLDPQEWREAATQVF [V15E]	2.84
HMFTPKLDKMLDPQPWREAATQVF [V15P]	2.81
HMFTPKLDKMLDPQKWREAATQVF [V15K]	2.39
HMFTPKLDKMLDKQVWREAATQVF [P13K]	2.34
HMFTPKLDKMLDDQVWREAATQVF [P13D]	1.79
HMFTPKLDKMLDIQVWREAATQVF [P13I]	1.29
HMFTPKLDKMLDTQVWREAATQVF [P13T]	1.76

Variants of: B2
Test: as above
Conditions: c terminus: native

Variant	protein stability index
SNFHINVEESVDGQVVSSHKRED [I23D]	4.89
SNFHINVEESVDGQVVSSHKREC [I23C]	4.94
SNFHINVEESVDGQVVSSHKREA [I23A]	4.14
SNFHINVEESVDGQVVSSHKREP [I23P]	3.83
SNFHINVEESVDGQVVSSHKREQ [I23Q]	4.43
YNFHINVEESVDGQVVSSHKREI [S1Y]	1.23
RNFHINVEESVDGQVVSSHKREI [S1R]	2.66
GNFHINVEESVDGQVVSSHKREI [S1G]	1.39
ANFHINVEESVDGQVVSSHKREI [S1A]	2.11
KNFHINVEESVDGQVVSSHKREI [S1K]	1.69
WNFHINVEESVDGQVVSSHKREI [S1W]	2.31
FNFHINVEESVDGQVVSSHKREI [S1F]	3.46
SNFHINVEESVDGQVESSHKREI [V16E]	2.85
SNFHINVEESVDGQVASSHKREI [V16A]	2.19
SNFHINVEESVDGQVVSNHKREI [S18N]	2.72
SNFHINVEESVDGQVVSCHKREI [S18C]	2.21
SNFHINVEESVDGQVVSRHKREI [S18R]	3.29
SNFHINVEESVDGQVVSIHKREI [S18I]	2.44
SNFCINVEESVDGQVVSSHKREI [H4C]	2.78
SNFMINVEESVDGQVVSSHKREI [H4M]	1.59
SNFAINVEESVDGQVVSSHKREI [H4A]	1.98
SNFHINVEESVDGQVVWSHKREI [S17W]	4.29
SNFHINVEESVDGQVVESHKREI [S17E]	2.91

Variant	protein stability index
SNFHINVEESVDGQVVRSHKREI [S17R]	1.7
SNFHINVEESVDGQVVYSHKREI [S17Y]	2.27
SNFHINVEESVDGQVVNSHKREI [S17N]	1.91
SNFHINVEESVDGQVVSSCKREI [H19C]	2.22
SNFHINVEESVDGQVVSSKKREI [H19K]	2.95
SNFHINVEESVDGQVVSSMKREI [H19M]	2.39
SNFHINVEESVDGQVVSSYKREI [H19Y]	3.48
SNFHINVEESVDGQVVSSLKREI [H19L]	2.08
SNFHINVEESVDGQVVSSHKRCI [E22C]	4.59
SNFHINVEESVDGQVVSSHKRPI [E22P]	4.74
SNFHINVEESVDGQVVSSHKRTI [E22T]	4.46
SNFHINVEESVDGQVVSSHKRKI [E22K]	4.82
SNFHINVEESVDGQVVSSHKRMI [E22M]	4.05
SNFHINVEESVDGQVVSSHKRQI [E22Q]	4.37
SNFHINVEESVDGQVVSSHKRGI [E22G]	5.28
SNFHINVEESVDGQVVSSHKRSI [E22S]	3.52
SNFHINVEESVDGSVVSSHKREI [Q14S]	1.94
SNFHINVEESVDGKVVSSHKREI [Q14K]	2.35
SNFHINVEESVDGMVVSSHKREI [Q14M]	1.32
SNFHINVEENVDGQVVSSHKREI [S10N]	2.09
SNFHINVEEYVDGQVVSSHKREI [S10Y]	2.62
SNFHINVEERVDGQVVSSHKREI [S10R]	2.21
SNFHINVEELVDGQVVSSHKREI [S10L]	1.38

Variant	protein stability index
SNFHINVEEFVDGQVVSSHKREI [S10F]	1.43
SNFHINVEESVDGQVVSSHCREI [K20C]	2.39
SNFHINVEESVDGQVVSSHIREI [K20I]	2.45
SNFHINVEESDDGQVVSSHKREI [V11D]	2.09
SNFHINVEESVDGQTVSSHKREI [V15T]	2.31
SNFHINVEESVDGQEVSSHKREI [V15E]	2.23
SNFHINVEESVDGQHVSSHKREI [V15H]	1.83
SNFHINVEESVDGQFVSSHKREI [V15F]	1.96
SNIHINVEESVDGQVVSSHKREI [F3I]	2.77
SNNHINVEESVDGQVVSSHKREI [F3N]	2.78
SNCHINVEESVDGQVVSSHKREI [F3C]	4.67
SNSHINVEESVDGQVVSSHKREI [F3S]	1.91
SNMHINVEESVDGQVVSSHKREI [F3M]	2.2
SNLHINVEESVDGQVVSSHKREI [F3L]	1.84
SNFHGNVEESVDGQVVSSHKREI [I5G]	2.8
SNFHYNVEESVDGQVVSSHKREI [I5Y]	1.24
SNFHINVEESVDGQVVSSHKNEI [R21N]	3.89
SNFHINVEESVDGQVVSSHKHEI [R21H]	3.9
SNFHINVEESVDGQVVSSHKWEI [R21W]	3.38
SNFHINVEESVDGQVVSSHKDEI [R21D]	4.89
SNFHINVEESVDGQVVSSHKLEI [R21L]	4.52
SNFHINVEESVDGQVVSSHKMEI [R21M]	4.91
SVFHINVEESVDGQVVSSHKREI [N2V]	1.71

Variant	protein stability index
SRFHINVEESVDGQVVSSHKREI [N2R]	1.39
SIFHINVEESVDGQVVSSHKREI [N2I]	2.85
SLFHINVEESVDGQVVSSHKREI [N2L]	2.23
SFFHINVEESVDGQVVSSHKREI [N2F]	2.6
SNFHINVEESVGGQVVSSHKREI [D12G]	1.45
SNFHINVEESVTGQVVSSHKREI [D12T]	2.21
SNFHINVEESVCGQVVSSHKREI [D12C]	3.28
SNFHINVEESVNGQVVSSHKREI [D12N]	1.82
SNFHINVEDSVDGQVVSSHKREI [E9D]	2.21
SNFHINVEGSVDGQVVSSHKREI [E9G]	1.54
SNFHINNEESVDGQVVSSHKREI [V7N]	2.1
SNFHINREESVDGQVVSSHKREI [V7R]	2.78
SNFHINVHESVDGQVVSSHKREI [E8H]	1.78
SNFHINVAESVDGQVVSSHKREI [E8A]	1.57
SNFHINVCESVDGQVVSSHKREI [E8C]	2.07
SNFHINVQESVDGQVVSSHKREI [E8Q]	1.59
SNFHIDVEESVDGQVVSSHKREI [N6D]	1.54
SNFHINVEESVDFQVVSSHKREI [G13F]	1.86
SNFHINVEESVDSQVVSSHKREI [G13S]	1.81
SNFHINVEESVDEQVVSSHKREI [G13E]	1.89
SNFHINVEESVDLQVVSSHKREI [G13L]	1.78
SNFHINVEESVDPQVVSSHKREI [G13P]	2.19

Source: the supplement of paper PMC10567573
